Results reported in the DeepSol protein solubility set.

Experiment: soluble on expression in E. coli; label from the status in PepcDB or PDB records

**Q.** With “MGSDKIHHHHHHMEHLLEVNNLSVSFKVEEGEVQAVRNVSFNLKKGETLAIVGESGCGKSVLCKSLMRILPYNGYIKNGEVLLKSSDLVKKSEKEMEDIRGKNISMIFQDPMTSLNPTISIGKQIAEAVIIHQGISKSEAKKRAIELIELVGIDNPEKRFKQFPHHFSGGMRQRIVIAIALACNPDVLIADEPTTALDVTIQAQIIDLIKDLQHKIGLSIIFITHDLGVVATIADRIAVMYAGKIVEIGTVEDIFYDPRHPYTWGLLGSLPTLDSQDDYLYNIPGMPPNLLNPPKGDAFAIRNKNALKIDYEKEPPMFKINDTHSAATWLLHPDAPEVDVPVRVNCGRVISNE” as the sequence, how does the “soluble on expression in E. coli” value read?
**A.** Its value is “not soluble”.

**Q.** With “MNHVAVIGGGIIGASWAVVFARRGLEVTIVERDAACLAGLPARLAGMIERSASLLGAGEQPGDVAARIGATDALAAAVGRADYVQEAVSENLALKRTLFAELDALAPAHALLASSTSTYGASQFTEALAGRARCLVAHPMTPPHLSPVVEMAASAWTDPQVLAGAEAFMRSLGQHPVRIRKEIPGFVLNRLQGALLMEMFRVIADDVISPADADALISQGLGLRWATLGPLEGVDLNAPGGIADYLQRYGHIFNDMAVGQGLPAPVDAELISALDGAMRAALPLERLEAKRGWRDRAIAGVRVALHDYTGEKPLEHHHHHH” as the sequence, how does the “soluble on expression in E. coli” value read?
**A.** Its value is “not soluble”.

**Q.** For “MTINTEVFIRRNKLRRHFESEFRQINNEIREASKAAGVSSFHLKYSQALLDRAIQREIDETYVFELFHKIKDHVLEVNEFLSMPPRPDIDEDFIDGVEYRPGRLEITDGNLWLGFTVCKPNEKFKDPSLQCRMAIINSRRLPGKASKAVIKTQ”, which “soluble on expression in E. coli” value is on record?
**A.** The value was “soluble”.

**Q.** For “MSLTGKKIETHLEDMVAQANAQLKLTAPESNLEVSYQNYHRGVFSSQLQLLVKPIAGKENPWIKSGQSVIFNESVDHGPFPLAQLKKLNLIPSMASIQTTLVNNEVSKPLFDMAKGETPFEINSRIGYSGDSSSDISLKPLNYEQKDEKVAFSGGEFQLNADRDAKPSPFPGRRKVVRIDAVNEYNQKVQLTFNNLKTDGSSTLASFGERVGNQKLSLEKMTISVEGKELALLEGMEISGKSDLVNDGKTINSQLDYSLNSLKVQNQDLGSGKLTLKVGQIDGEAWHQFSQQYNAQTQALSRQPEIANNPELYQEKVTEAFFSALPLMLKGDPVITIAPLSWKNSQGESALNLSLFLKDPATTKEAPQTLAQEVDRSVKSLDAKLTIPVDMATEFMTQVARKVIRKIKRKNWRNSKLKVHQQWGRCSVEGHHHHHH”, which “soluble on expression in E. coli” value is on record?
**A.** Its value is “not soluble”.

**Q.** Which “soluble on expression in E. coli” value does the source give for “MSLGTVTITEMDCVDGVHRIGVATLDNTPSLNALTFDMLLQLHDQLIKWQHDPHVVCVVLSGAGEKAFCAGGDVRAMYHVMHNESKEATVEFCTKYFALEYECDYLIHTYNKPIIGWGEGIVMGGGMGLFMGTSHKVVTPISRLAMPEINIGLYPDVGGTWFLSQIDPEVGLFLGLTGALVNSSDAVTTGLADWLLLEEQYPTLLKELQKVPWGTSGAKELVSALLALLEEQIIDSKPTTQICPHLEQIKEACKGVDLNLIAQRIMAMEDSSPWIAGAKETFSSGSPITAHICFRQVKEYHRLPLADCFRLELSLSVRCALLGEFEEGVRARLIDRDGEPNWMFKTVSEVDEDVIDLLFTSLWADAEHPLAKLGEGHHHHHH” here?
**A.** Its value is “soluble”.

**Q.** Which “soluble on expression in E. coli” value does the source give for “NIDEHSLFVNVGERTNVTGSKAFARLILNGGYAEGLVIARSQVENGAQIIDINMDEAMLDSQKAMVTFLNLLAAEPDISRLPIMLDSSKWSVIEAGLKCVQGKAVINSISLKEGEAEFLHHARLARRYGAAVIVMAFDETGQADTLQRKVEICTRCYHTLIEQADFPPEDIIFDPNIFAIATGIEEHSNYAVDFIEATHVIRQTLPYAKVSGGVSNVSFSFRGNEPIREAIHTAFLYHAVKAGMTMGIVNAGQLGVYSDIPPDLLEHVEDVLLNRRPDATERLVEFAEHFKGQKKEQIE” here?
**A.** Its value is “not soluble”.

**Q.** With “MVIERSCMGDLDKNPAVKAMVVFRKAMRTIDAQVAPSYKNNGLTQTQFAVLDVLYAKGEMTISRLIASILATSGNMTVVIKNMERNGWIYRSPNPDDRRASVVGLTEVGKQLIQKALPDHIAMVEAAFSVMTEEEQLVLIDLLKKFKSL” as the sequence, how does the “soluble on expression in E. coli” value read?
**A.** Its value is “not soluble”.

**Q.** Which “soluble on expression in E. coli” value does the source give for “MGAAKPIFVEHSIVIDRPAQQVYDYWRKLENLPQIMSHLESVTVLDDKRSRWVAKAPLGTHVEWEAEVVNDKPGERIGWHSLPGATVDNAGSVQFESLPDDKTRVHVALSYRPPAGPLGAAVAKLFGEEPSQQIAEDLQKFKATFEGLEHHHHHH” here?
**A.** The value was “not soluble”.

**Q.** With “MLNSRRIVVVLPAYNAEKTLEMTYAEIPFEHVDHVLLVDDASRDRTAQVAERLGIKTIVHDRNKGYGANQKTCYRAALDLGADIVIMVHPDYQYTPKLITAMAAMIAYGEFDAVLGSRILGIGALKGGMPLYKYVANRVLTLVENLLLSHKLSEYHTGYRAFSRQVLEQLPLDANGDDFVFDNQMLAQIIWHGYRIGELSCPTKYFEDASSINFRRSVIYGLGVLGTALEFRLARMGLIRSGRFTPRNDQAAAQLEHHHHHH” as the sequence, how does the “soluble on expression in E. coli” value read?
**A.** The value was “soluble”.

**Q.** With “MTQETFTATTRVKRGLADMLKGGVIMDVVTPEQARIAEDAGASAVMALERVPADIRAQGGVARMSDPDLIEGIVNAVSIPVMAKARIGHFVEAQILESLGVDFIDESEVLSPADYVNHIDKWNFDVPFVCGATNLGEALRRITEGAAMIRSKGEAGTGDVSEAVKHLRTIRGEINRLRSMDEDQLYVAAKEIQAPYDLVREVAATGKLPVTLFVAGGVATPADAALVMQMGAEGVFVGSGIFKSGNPAARAAAIVKATTMYDDPAAIAEVSRGLGEAMVGINVADVPAPHRLAERGW” as the sequence, how does the “soluble on expression in E. coli” value read?
**A.** Its value is “not soluble”.

**Q.** With “MGSDKIHHHHHHMFRRHGIIAFSSNYELYADMSNRVMTTLEELSPRCEIYSIDEAFCDLTGVRNCRDLTDFGREIRETVLRRTHLTIGVGIAQTKTLAKLANHAAKQWQRQTGGVVDLSNLERQRKLMALLPVDEVWGVGRRISKKLEAMGIKTVLQLADTDIRFIRKHFNVVLERTVRELRGEPCLGLEEFAPVKQEIVCSRSFGGRITEYHEMRQAICSYASRAAEKLRGEHQYCRFISAFVKTSPFALNEPYYGNSASVKLLTPTQDSRDIITAATKCLDAIWRDGHRYQKAGVMLGDFYSQGVAQLNLFDDNAPRKGSEKLMEVLDHLNAKGGRGTLYFAGQGIQTAWQMKREMLSPRYTTRFCDLLKVR” as the sequence, how does the “soluble on expression in E. coli” value read?
**A.** Its value is “not soluble”.

**Q.** With “SHPALTQLRALRYSKEIPALDPQLLDWLLLEDSMTKRFEQQGKTVSVTMIREGFVEQNEIPEELPLLPKESRYWLREILLSADGEPWLAARTVVPVSTLSGPELALQKLGKTPLGRYLFTSSTLTRDFIEIGRDAGLWGRRSRLRLSGKPLLLTELFLPASPLY” as the sequence, how does the “soluble on expression in E. coli” value read?
**A.** The value was “soluble”.

**Q.** With “HHHHHHSSGLVPRGSHMTAQTVTGAVAAAQLGATLPHEHVIFGYPGYAGDVTLGPFDHAAALASCTETARALLARGIQTVVDATPNGCGRNPAFLREVSEATGLQILCATGFYYEGGGATTYFKFRASLGDAESEIYEMMRTEVTEGIAGTGIRAGVIKLASSRDAITPYEQLFFRAAARVQRETGVPIITHTQEGQQGPQQAELLTSLGADPARIMIGHMDGNTDPAYHRETLRHGVSIAFDRIGLQGMVGTPTDAERLSVLTTLLGEGYADRLLLSHDSIWHWLGRPPAIPEAALPAVKDWHPLHISDDILPDLRRRGITEEQVGQMTVGNPARLFG” as the sequence, how does the “soluble on expression in E. coli” value read?
**A.** Its value is “soluble”.

**Q.** For “MKVDVDEKTYIITMANDITKLYEENKRNLHYSITDPLTGAYNRKYLNDRFDIFIGDYIVLIDLDNFKMINDYEGHNVGDKILCDFVSLLNKELINSTSIIRLGGDEFIVIFSSDVDKNYVYSQLEALRENFLKVFSKYKYLSFSYGVDTVKRNLKLTIVELDKKMYKNKEKLEHHHHHH”, which “soluble on expression in E. coli” value is on record?
**A.** The value was “not soluble”.

**Q.** For “SNAMKDKIIDNAITLFSEKGYDGTTLDDIAKSVNIKKASLYYHFDSKKSIYEQSVKCCFDYLNNIIMMNQNKSNYSIDALYQFLFEFIFDIEERYIRMYVQLSNTPEEFSGNIYGQIQDLNQSLSKEIAKFYDESKIKMTKEDFQNLILLFLESWYLKASFSQKFGAVEESKSQFKDEVYSLLNIFLKK”, which “soluble on expression in E. coli” value is on record?
**A.** Its value is “soluble”.

**Q.** Which “soluble on expression in E. coli” value does the source give for “MSALKSFTVNFHQEDNAKATTVHKLSEEDFNKATEKGTRHLFDLDTNVGFFVFFDAEDAEGNDQYLMLQYEGDHEEPTACYGFDLKLYYQFLALYLNDLEFQGETDEEEEEYGPIHHLAHLLYHIVEDGKSIEV” here?
**A.** Its value is “not soluble”.

**Q.** With “MGSDKIHHHHHHMVSWVRGATKSLLGCSENSRRTKGNDMAVIFKGIPSIGNGLTDDTVLWRYLDTAKFLDLLHNRTLFFCRGDRFADKYEGAFTESIKHAIEEAFRKNEINSSVAEFKTRLRERVFVNCWHQSRDDSMAMWSLYGKSSAAVAITTTVGQLRDAIKLAKLPYAINIAKVEYVKHWRDPQLVFKPYSNVFAYKLKAYDYEKEVRVIIDRFHENEDISALPDGMSAAIPLETLLRSIVVCPEAAPWFVELVGDVVHKYGVSAPVNRSKLAFDPK” as the sequence, how does the “soluble on expression in E. coli” value read?
**A.** Its value is “not soluble”.

**Q.** Which “soluble on expression in E. coli” value does the source give for “MSLKRRQTNIIGVYLADYGGSFYGELLEGIKKGLALFDYEMIVCSGKKSHLFIPEKMVDGAIILDWTFPTKEIEKFAERGHSIVVLDRTTEHRNIRQVLLDNRGGATQAIEQFVNVGSKKVLLLSGPEKGYDSQERLAVSTRELTRFGIPYEIIQGDFTEPSGYAAAKKILSQPQTEPVDVFAFNDEMAIGVYKYVAETNYQMGKDIRIIGFDNSELGAFVQPRLATIAYSKHRWGMVAAEKIIHLMRGEAAESEHIYTRFIEGESFPSEGHHHHHH” here?
**A.** The value was “soluble”.

**Q.** For “MSKQENIISHNTDSSLLNTVMQQMKERIINEGDKPHVTVETQLKILQELSQFGFGQFLIKNQGINGYWTHYMLTHPWFGRKTGLNNSREPLSNMECFLLDKAPTMLATQQRFELFLQENQKALVNGATLASIPCGMLGELLYLDFNGINNIQLMGIDYDQAALEDANALAKERNLDRFTTLVCRNAWELNIQEEFDLISSNGLNIYEPDDNKVLDLYQQFHTALKKGGKLVTSFLTPPPHLSSQCEWIFNKINPEDLLLQRIIFSDILNAKFQCYRSSQQTQKQLALAGFKNIHFLYDEAHLFPTVIAEK”, which “soluble on expression in E. coli” value is on record?
**A.** Its value is “not soluble”.

**Q.** Which “soluble on expression in E. coli” value does the source give for “MINSSMQFDRILASQPGISLIAEKRITRSASYFPDHFPKRPVLPMTVLLECKLNLAKEFIARAKYDRAYRISELRKIKMNEFVHPGDVVVCQVKVKQQMDDELILSYRCEVDGKRVCVVDIVLIPKGKLEHHHHHH” here?
**A.** The value was “not soluble”.

**Q.** With “MSLGQVFYYQPEQVHLSFGESPLEIVVTWSTMTATNESIVEYGIGGLILSATGTETKFVDGGPAKRTQYIHRVVLRDLQPSSRYEYHCGSRWGWSAEFYFHTTPAGTDWSPSLAIFGDMGNENAQSMARLQEDTQRHMYDAILHVGDFAYDMNTDDALVGDQFMNQIQSIAAYTPYMVCAGNHEEKYNFSNYRARFSMPGGTENIMYSFNLGPVHFIGFSTEVYYFMNYGLKPLVKQYEWLRRDLEEANRPENRKLRPWIVTYGHRPMYCSNDNDNDCTHSETLVRVGLPFMHWFGLEDLFYEHGVDVEIWAHEHSYERLFPIYDYKVYNGSYEEPYRNPRAPVHLVTGSAGCKEGREPFINKIPTWSAIHSRDYGYTRMKAINGSHLYFEQISVDKEGAVIDSFTIIKDEGHHHHHH” as the sequence, how does the “soluble on expression in E. coli” value read?
**A.** The value was “soluble”.

**Q.** For “MSLGYTTAKKEVSVVIEDGINEIINKTERFVSLKLESDISLASSIVDSISLRISDEQYINDIINGNAIKKAFLSTGFGFDSNGKVIENDPNWEPEDDYDPRSRGWYQEAKKNKRIFITEPYLDTEGKNFLVSISSPVADTMNNFIGAMYFDVDLSRIQKNVDDINLFEAGYVFITSNTGKVIIHSNTDELGKNVKDIYNGFRLDKGKVVLSVNGVNKWLYTSPILGGDWFIIAVIDESIAMQSINKMKYEEGHHHHHH”, which “soluble on expression in E. coli” value is on record?
**A.** Its value is “soluble”.
